This assay addresses ACE2 on Vero E6 cells (monkey (endogenous in Vero E6)). The assay is described as follows: flow cytometry on cells.

The term IC50 denotes the concentration at which inhibition is half-maximal. The substance functional peptide KYPAY (K5) gave an IC50 of 6.7 µM.

The values are drawn from paper PMC11242946, “Inhibition of ACE2–S Protein Interaction by a Short Functional Peptide with a Boomerang Structure” (Molecules, 2024).
